Data published in the supplement of paper PMC10126150.
± gives the standard deviation of the averaged measurements.

test system: ATP; assay: switch fluorescence ratio, 500 uM ATP over buffer (Cy3 cluster intensity, sum of 5 cycles each) (fold (ratio)); higher = stronger signal-on switching upon ATP binding; sequences stand for … in TCGTCGGCAGCGTCAGATGTGTATAAGAGACAGTTTTTTTTTTTTTTTTTTTTTTTTT…TC; details: aptamer strand: ATP DNA aptamer (quencher-CACCTGGGGGAGTATTGCGGAGGAAGG + anchor), 100 nM annealed; ATP concentration: 500 uM
In short: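 Imaging in selection buffer was followed by imaging after 15 min with 500 uM ATP at 22 °C, for Cy3-labelled switching-strand clusters annealed to 100 nM quencher-labelled ATP aptamer on a modified Illumina MiSeq flow-cell. Five of these buffer/ATP cycles ran, separated by NaOH stripping and re-annealing. The fluorescence ratio per cluster is summed target-cycle over summed buffer-cycle Cy3 intensity, averaged per switch-domain sequence; clusters outside 100-1000 RFU were removed.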
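Further: ATP exposure 15 min at 22 °C before imaging.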

GCGATTGGGT and ATCGGTGTTG are within error of each other in switch fluorescence ratio: 1.01 ± 0.043 for the first, 1.02 ± 0.035 for the second.

TAAATTATGT and GTGGGAGTTT are within error of each other in switch fluorescence ratio: 0.9816 ± 0.0076 for the first, 1.01 ± 0.043 for the second.

TTCGGTTAGC and ATGTTGGGTG are within error of each other in switch fluorescence ratio: 1.05 ± 0.041 for the first, 1.02 ± 0.045 for the second.

First: TAAATTTTAT
Second: AAATGGGTAG
The switch fluorescence ratio of the first is higher: 1.012 ± 0.0058 for the first, 0.9692 ± 0.0062 for the second.

TTTAGGCAAA and TAGGGCGGAG are within error of each other in switch fluorescence ratio: 1.05 ± 0.12 for the first, 0.957 ± 0.025 for the second.

GGATGGGTGC and AAAGGGGTTG are within error of each other in switch fluorescence ratio: 0.9939 ± 0.0091 for the first, 1.01 ± 0.072 for the second.

TTTACCGTCT and TCGTCCAAGT are within error of each other in switch fluorescence ratio: 1.04 ± 0.018 for the first, 1.07 ± 0.066 for the second.

GCTCTGGGGG and CAGGCGACGG are within error of each other in switch fluorescence ratio: 1.03 ± 0.039 for the first, 1.01 ± 0.033 for the second.

First: AGGAGTGTGG
Second: CATTACTGTA
The switch fluorescence ratio of the first is lower: 1.01 ± 0.031 for the first, 1.24 ± 0.076 for the second.

TCTGTGAGTG and TCAAGAGTTA are within error of each other in switch fluorescence ratio: 0.973 ± 0.014 for the first, 0.99 ± 0.035 for the second.

CGGGCCATAG and TACATTGGGC are within error of each other in switch fluorescence ratio: 1.03 ± 0.044 for the first, 1 ± 0.013 for the second.

TCCAAAATTT and CCGATCGTGG are within error of each other in switch fluorescence ratio: 0.976 ± 0.013 for the first, 2.86 ± 1.9 for the second.

First: CGATGGAATC
Second: TTGTTGGGGA
The switch fluorescence ratio of the first is higher: 1.69 ± 0.042 for the first, 1 ± 0.019 for the second.

TAATGAGGCT and TGATTGGGTC are within error of each other in switch fluorescence ratio: 1.03 ± 0.014 for the first, 1.02 ± 0.036 for the second.

AATTCCATTT and ATGAAGTAAT are within error of each other in switch fluorescence ratio: 1.01 ± 0.023 for the first, 1 ± 0.023 for the second.

GGTTTTGCAG and TTTGCTCGGG are within error of each other in switch fluorescence ratio: 0.9946 ± 0.0069 for the first, 1.003 ± 0.002 for the second.

AAAACGAATG and CAATTGGTAC are the same in switch fluorescence ratio: 1.05 ± 0.065 for the first, 1.05 ± 0.013 for the second.

TTTTTAAAGT and GTTGTCGTTT are within error of each other in switch fluorescence ratio: 0.993 ± 0.026 for the first, 0.99104 ± 0.00015 for the second.

GGTTTTAATG and GATAGGAGGG are within error of each other in switch fluorescence ratio: 0.988 ± 0.031 for the first, 0.959 ± 0.012 for the second.

CGATCGGTGG and CTCGGGGGAT are within error of each other in switch fluorescence ratio: 1.01 ± 0.058 for the first, 1.05 ± 0.1 for the second.

First: ACTTGGTCCA
Second: TGTTACTCGT
The switch fluorescence ratio of the first is lower: 0.987 ± 0.016 for the first, 1.03 ± 0.0012 for the second.

AATTTAAAAA and CGTCGGGGTG are within error of each other in switch fluorescence ratio: 0.986 ± 0.022 for the first, 1 ± 0.017 for the second.

TTAGGTGTCT and CTAATAGTT are within error of each other in switch fluorescence ratio: 0.998 ± 0.071 for the first, 1 ± 0.048 for the second.

Compared with TTGTAATGAG, CCGCATTTTT is higher in switch fluorescence ratio: 1.04 ± 0.065 for the first, 2.19 ± 0.82 for the second.

AAGGGAGCTG and GGACATTGG are within error of each other in switch fluorescence ratio: 1.02 ± 0.15 for the first, 1.03 ± 0.02 for the second.

TGTGGGGATT and GCTGTTTGTA are within error of each other in switch fluorescence ratio: 1.02 ± 0.032 for the first, 0.999 ± 0.03 for the second.

GGTTGAGGGG and ATTGGGGCGT are within error of each other in switch fluorescence ratio: 0.985 ± 0.034 for the first, 0.977 ± 0.016 for the second.

GGCTCGGGGG and ACTCAGATTG are within error of each other in switch fluorescence ratio: 1.03 ± 0.029 for the first, 1.05 ± 0.056 for the second.

CGTTTACCTG and TGATATGGGA are within error of each other in switch fluorescence ratio: 0.983 ± 0.0042 for the first, 1.01 ± 0.03 for the second.

AAAGGGTGAG and TGGGGAATTT are within error of each other in switch fluorescence ratio: 0.9726 ± 0.0064 for the first, 0.987 ± 0.023 for the second.

TAGGTCTCAG and GTTGTATGGA are within error of each other in switch fluorescence ratio: 1.029 ± 0.0085 for the first, 0.995 ± 0.034 for the second.

CGAATTGGTG and GTTTCGTTTC are within error of each other in switch fluorescence ratio: 1.03 ± 0.04 for the first, 1.01 ± 0.025 for the second.

First: GGGGTGAC
Second: GCTGAGTAAC
The switch fluorescence ratio of the first is higher: 1.0027 ± 0.00099 for the first, 0.99 ± 0.0017 for the second.

GTTTGGTTAT and GCCCGTTACG are within error of each other in switch fluorescence ratio: 0.995 ± 0.012 for the first, 1.02 ± 0.055 for the second.

GAGGGTTAAG and CGCCCTTGGG are within error of each other in switch fluorescence ratio: 1.02 ± 0.029 for the first, 0.992 ± 0.024 for the second.

Going from AATCGGGTTT to GGCAGTTTGG, the switch fluorescence ratio rises from 0.953 ± 0.02 to 1.01 ± 0.023.

GGCGCCGTTG and TGGGGAGGGA are within error of each other in switch fluorescence ratio: 0.978 ± 0.019 for the first, 0.983 ± 0.033 for the second.

GTGCGGAGAA and TTAACAGTTT are within error of each other in switch fluorescence ratio: 0.986 ± 0.035 for the first, 1.001 ± 0.0067 for the second.

Going from AGTTTATGCA to TTTGGGTATT, the switch fluorescence ratio falls from 1 ± 0.017 to 0.9684 ± 0.0013.

First: TCCAAGACGA
Second: CTATGGGTCC
The switch fluorescence ratio of the first is higher: 1.34 ± 0.23 for the first, 1.02 ± 0.026 for the second.

CGGTTCGCCT and GGATGTATCT are within error of each other in switch fluorescence ratio: 0.998 ± 0.016 for the first, 0.995 ± 0.012 for the second.

CGTTCCCGTG and AGCTGCTACG are within error of each other in switch fluorescence ratio: 0.9811 ± 0.0031 for the first, 0.996 ± 0.027 for the second.

Going from TTGGTTCTGG to CTCGGCGCTT, the switch fluorescence ratio rises from 0.962 ± 0.038 to 1.05 ± 0.02.

AAATTTTCGA and CGGAAGGGGG are within error of each other in switch fluorescence ratio: 1.018 ± 0.0088 for the first, 1 ± 0.048 for the second.

First: TAAATGGCGT
Second: CCGTGGGTTT
The switch fluorescence ratio of the first is lower: 1.01 ± 0.033 for the first, 1.059 ± 0.0031 for the second.

AGGTTGAGCT and TTGAGAAAGT are within error of each other in switch fluorescence ratio: 0.9791 ± 0.0021 for the first, 1.47 ± 0.68 for the second.

CGTATGGTTA and ATTTTTTCGT are within error of each other in switch fluorescence ratio: 1.02 ± 0.038 for the first, 1.04 ± 0.036 for the second.

Compared with ATTAGTTGTG, ATTACTTTTC is higher in switch fluorescence ratio: 0.976 ± 0.011 for the first, 1.006 ± 0.0057 for the second.

TCAGGGTTAT and ATCCCGGGAT are within error of each other in switch fluorescence ratio: 1.02 ± 0.0034 for the first, 1 ± 0.022 for the second.

CATTTTTAAG and TTATCGGTTG are within error of each other in switch fluorescence ratio: 1 ± 0.011 for the first, 1.03 ± 0.043 for the second.

TTGGCAACTT and TTGTACGCCC are within error of each other in switch fluorescence ratio: 1.03 ± 0.03 for the first, 1.24 ± 0.2 for the second.

AATAAGATTG and AGCAGGGCTG are within error of each other in switch fluorescence ratio: 0.987 ± 0.022 for the first, 0.99566 ± 0.00073 for the second.

Going from TGAGAAAAAT to CGAGATACTC, the switch fluorescence ratio rises from 0.973 ± 0.018 to 1.86 ± 0.17.

Compared with GGTGGAGGAG, GCTACGTGTT is higher in switch fluorescence ratio: 0.979 ± 0.023 for the first, 1.053 ± 0.007 for the second.

TTAAGGGGAC and TACGAAGTCG are within error of each other in switch fluorescence ratio: 1.04 ± 0.037 for the first, 1.0075 ± 0.00084 for the second.

CAGCGGGTCT and GGTTTCCTGG are within error of each other in switch fluorescence ratio: 1.04 ± 0.054 for the first, 0.971 ± 0.031 for the second.

CCTGGGGGC and TTTTTCGTCA are within error of each other in switch fluorescence ratio: 1.1 ± 0.056 for the first, 1.037 ± 0.0074 for the second.

First: GAGATAGGTA
Second: AACTTACTTT
The switch fluorescence ratio of the first is lower: 0.997 ± 0.024 for the first, 1.13 ± 0.021 for the second.

GGTGCTTGGT and TTGTGGTGAG are within error of each other in switch fluorescence ratio: 0.989 ± 0.018 for the first, 0.987 ± 0.016 for the second.

AATCTGCCCA and TGTGATTTTC are within error of each other in switch fluorescence ratio: 1.04 ± 0.015 for the first, 1.01 ± 0.016 for the second.

AGTGCATTTT and ATAGGAGGTG are within error of each other in switch fluorescence ratio: 1.06 ± 0.097 for the first, 1.07 ± 0.019 for the second.

CGTGGGGAAG and CATATTATGG are within error of each other in switch fluorescence ratio: 0.998 ± 0.023 for the first, 0.981 ± 0.036 for the second.

AAATCGGCGG and AGTGTTTTAA are within error of each other in switch fluorescence ratio: 0.991 ± 0.05 for the first, 0.994 ± 0.033 for the second.

GTTTTCGTGG and GTGAAGTATT are within error of each other in switch fluorescence ratio: 0.995 ± 0.021 for the first, 0.983 ± 0.033 for the second.

GGCCTTAGGG and GGGATTTGCT are within error of each other in switch fluorescence ratio: 0.987 ± 0.013 for the first, 0.963 ± 0.022 for the second.

TCGGAAGGGC and TGTAGTGTTG are within error of each other in switch fluorescence ratio: 1.017 ± 0.0027 for the first, 1 ± 0.043 for the second.

Going from CTCAGGGGGT to GGTAGTTCCT, the switch fluorescence ratio rises from 0.9759 ± 0.007 to 1.02 ± 0.013.

Compared with GGCGAGTATG, CCTTTCCGGG is higher in switch fluorescence ratio: 0.9522 ± 0.0037 for the first, 1.21 ± 0.048 for the second.

AGGATTGGTT and TCTGAGAGAG are within error of each other in switch fluorescence ratio: 1 ± 0.025 for the first, 0.9823 ± 0.0032 for the second.

TTTGAGGAAG and ACAAGACTGT are within error of each other in switch fluorescence ratio: 1.01 ± 0.022 for the first, 1.04 ± 0.048 for the second.

AGTTGGTGG and ATGGTGGGGG are within error of each other in switch fluorescence ratio: 1.02 ± 0.024 for the first, 0.995 ± 0.034 for the second.

TTATCCACGA and CGCGGGGTGC are within error of each other in switch fluorescence ratio: 1.03 ± 0.033 for the first, 1.06 ± 0.097 for the second.

Compared with AATTCGACGA, TCGCTACCGA is higher in switch fluorescence ratio: 1.006 ± 0.0056 for the first, 1.09 ± 0.04 for the second.

AGTGGTACTA and CGGTTAGAGG are within error of each other in switch fluorescence ratio: 0.991 ± 0.038 for the first, 0.989 ± 0.0013 for the second.

ATGTCAAGGG and CTAGTATGTT are within error of each other in switch fluorescence ratio: 0.9944 ± 0.0085 for the first, 0.979 ± 0.02 for the second.

GAAAGGGGGG and TTTGAAGACT are within error of each other in switch fluorescence ratio: 1.04 ± 0.098 for the first, 0.98 ± 0.028 for the second.

AAGGAAACGT and AACGGGGGGT are within error of each other in switch fluorescence ratio: 1.04 ± 0.039 for the first, 0.997 ± 0.033 for the second.

AATATTTCGG and AAGGGTTTAA are within error of each other in switch fluorescence ratio: 0.99 ± 0.0092 for the first, 0.98 ± 0.018 for the second.

In the case of TCTTGGACGA, the switch fluorescence ratio is reported as 0.991 ± 0.025.
